Source: the DeepSol protein solubility set

Assay: soluble on expression in E. coli; label from the status in PepcDB or PDB records

Sequence | soluble on expression in E. coli
MSLAELTALYTLTAQMKREGICRLLVLSGEEGWCFDHALKLRDALPGDWLWISPQLDAENHCSPSALQTLLGREFRHAVFDARHGFDAAAFAALSGTLKAGSWLVLLLPVWEEWENQPDADSLRWSDCPDPIATPHFVQHLKRVLTADNDAILWRQNQPFSLAHFTPRTDWHPATGAPQPEQQQLLQQLLTMPPGVAAVTAARGRGKSALAGQLISRIAGSAIVTAPAKAATDVLAQFAGEKFRFIAPDALLASDEQADWLVVDEAAAIPAPLLHQLVSRFPRTLLTTTVQGYEGTGRGFLLKFCARFPHLHRFELQQPIRWAQGCPLEKMVSEALVFNDENFTHTPQGNIVISAFEQTLWRSEPETPLKVYQLLSGAHYRTSPLDLRRMMDAPGQHFLQAAGENEIAGALWLVDEGGLSQELSQAVWAGFRRPRGNLVAQSLAAHGSNPLAATLRGRRVSRIAVHPARQREGTGRQLIAGALQYTHDLDYLSVSFGYTGELWRFWQRCGFVLVRMGNHREASSGCYTAMALLPMSDAGKQLAEREHYRLRRDAQALAQWNGEMLPVDPLNDAILSDDDWLELAGFAFAHRPLLTSLGCLLRLLQTSELALPALRGRLQKNASDAQLCTTLKLSGRKMLLVRQREEAAQALFALNEVRTERLRDRITQWQFFHEGHHHHHH | soluble
MASLATSISGSFRILVKSSSTRNGFPVISDQNPSFVLFANKRRHISRTAIFHRSAISGSSQGEKISPLASGVSSGLYSAQTFDLTPQNVDLVLEDVRPFLISDGGNVDVVSVEDGVVSLKLQGACTSCPSSSTTMTMGIERVLKEKFGDALKDIRQVFDEEVKQITVEVSEASF | not soluble
MGSDKIHHHHHHMATTESFAQTLAAKQPRLLAAFKHIIAQNHLAHAYLFAGMEGAGQPELAHWIAQRLFCLHINDGEPDGTCEECVRIANGSHPDIVTVAPEGQRIHVDQVRYLKAEFSKSAVEGNRKLFIINDAEKMTASAANSLLKFIEEPSGNVTALLLTTNKQLMLPTIISRTQVIEFPPLNAQALQQTFEQAGIAPNQAQMLRGLTNSVTQAQALLADDWLPQAAQALWRWFDQAVKGDPRSFVAVQVNLVGLAKDADHQLVMLDLIAALFQDLLQLHFEVATTALTFGQYQKELAGLTAEVSDEQLIAATELALTAKRQLASNISFQNVLEGLTLKLWPIFQTNA | not soluble
MGSDKIHHHHHHMKIPRRLEPLLEDGLIDGVVRQLMSGKEAMVFAVRCGDEIRCAKVYKEANKRSFRQAVDYTENRKTKNSRQARAMAKGSKYGRQMQEAAWQSAEVDALYRLAAAGVRVPTPYNFHEGVLLMELVADADGNAAPRLNDVSFTEGEALAHHQTLIREVVRMLCAGVVHGDLSEFNILVGADGPVIIDLPQAVDAAGNNHAQAMLMRDVHNLRGYFGQFAPALLTTRYAEEIWALYEHGSLHPEVALSGQFECEMPPVDLEGVMREIDDAREQEAARLLRLQELS | not soluble
MGSDKIHHHHHHMEQQIPFSYVIISPENATEKEGYMISTIDKCGFFFCQKGEVEVALNDKSYLISKGSVCIYMTGSLLRIQRISKDIKGIMLEVDLNYIIPIVNKIVNSENLLYLRENPCFSITEYQYNYLEQLIKALQQRMDIKAHDIPLQRQHLISELIKSWGQTLCYELLNVYFTNQPLKPLSQDKKDKIFQNFVITLFRYYQQERDVTFYASKQYLSSRYFSAVIKEKSGSTALQWIVQMVITEAKQLLENSDLTIKEIATKLNFPTQSFFGKYFKQYVGVSPKEYRNKQIRQLPF | not soluble
ARKIGIIGLGNVGAAVAHGLIAQGVADDYVFIDANEAKVKADQIDFQDAMANLEAHGNIVINDWAALADADVVISTLGNIKLQQDNPTGDRFAELKFTSSMVQSVGTNLKESGFHGVLVVISNPVDVITALFQHVTGFPAHKVIGTGTLLDTARMQRAVGEAFDLDPRSVSGYNLGEHGNSQFVAWSTVRVMGQPIVTLADAGDIDLAAIEEEARKGGFTVLNGKGYTSYGVATSAIRIAKAVMADAHAELVVSNRRDDMGMYLSYPAIIGRDGVLAETTLDLTTDEQEKLLQSRDYIQQRFDEIVDTL | soluble
MSMSVILRKSLIEVLNKKNEKKKDVAREISTSQQSLSDWTSQNNVKPVTIENALRLSDHFRDSTFTMEVIHQFFGMFKTCDGDVYRKDPSSLDRLQKIESNERKALKHDIERIVLKNPEYLSEQDISKIVAYANEYLDEVIVEITLLSSLCDLASIDIRYLSEQRFPYWEQLGYMRKENTNGTRSY | not soluble
MSLGNSYAGQLKTTRFEEVLHNSIEASLRSNNLVPRPIFSQLYLEAEQQLAALEGGSRVDNEEEEEEGEGGLETNGPPNPFQLHPLPEGCCTTDGFCQAGKDLRLVSISNEPMDVPAGFLLVGVKSPSLPDHLLVCAVDKRFLPDDNGHNALLGFSGNCVGCGKKGFCYFTEFSNHINLKLTTQPKKQKHLKYYLVRNAQGTLTKGPLICWKGSEFRSRQIPASTCSSSLFPALESTAAFPSEPVPGTNPSILMGAQQAGPASDHPSLNAAMGPAVFNGKDSPKCQQLAKNNLLALPRPSALGILSNSGPPKKRHKGWSPESPSAPDGGCPQGGGNRAKYESAGMSCVPQVGLVGPASVTFPVVASGEPVSVPDNLLKICKAKPVIFKVFVNGATQMVALGPAEEGHHHHHH | not soluble
MEVEIEDIDEVATLTETDIVEIQTKLIEDLQEMVVKDKEKHEKLLKLGEHVLDEQTRLRTRLSEEFGDFLNRSKRSLTRNFETADGNVYSFEKNLRELLHLYITVHNRVKQDEKEVAKQDEFLNQIDRNEMELKDLRDNIRSLRSELTVDVGPVSSVTSKTSGIEANFIVKPYKPLETELATQIVRVNRELEILKMQLPNCDHFPNLMNPVQKLGEKVTGMVMKDLPAKKLQDFLDTLPPMKRD | not soluble
MSNCEIIAVHGGACAKFDASLAEDCRFACGTGTVENALTDLERIEKFNCGFGSHLTIDQEVECEASYMSSKNLSFGAVGAISNVFHPSRVARHLAHSNWWKQRRLLHPLILVGRGAEKYAVKNDFPTCTPEELVSKAAKESFEKYLHRMLHPYDTHDTVGAISINTNTMNSESGTSSGGIVLKHSGRLGHSCVYGSGTWSERRQYEEPFDQVSERTISICSTGHGESLVKADFCRGIATRVLDDEEGIMYSEIIREFIHEKMEHGSRYGGIALIADKFKDRMSLEFLIFHNCRYLPAAVRCRDNQIRVFESQFDPDQCTTDPKCVIESFIM | not soluble
MGSDKIHHHHHHATAPSPDFNEARFRNDIKILSSDAFEGRAPTTAGEKLTLDYLSTAFKAAGLKGTNNGSFLQSVPMVTYNASENQAIRLGNLHPAYRKDIVLGSRHNNQGVEISNAPLVFVGYGIKAPEYDWDDYAGLDMQGKIAVILVNDPGFAAPESGKFKGKAMTYYGRWSYKFEEASRQGALGAIIIHDTAPASYPWSVIENSWTGPQQDLADASQTDSRVQVEGWMTLDTAKALFDEAGLSLDTLSQEAALTPGNHDLKQSADIAFTNSATFTDSYNLVATLPGTDRADEHILFTAHWDHIGKDDSRDGDKIYNGALDNASGVAGIVEIARQFAALDAMGFKNRRSITFIATTGEEQGLLGSRYYAANPLFPIDKTIAVLNLDSTNVFGRTKDFTIVGKGQSQLEDYLVAAAKAQGREAVAEKNPASGGFFRSDHFSFAKLGVSAAFAGGGSIPLDDATATYKAEMQQKMKGCYHNVCDEYRADWDLSGALQDLALYYDVARTLANNEHRPGYYQKSEFYPLRPAN | not soluble
MSLKHLKGNKNTFQKRMYCKKTEIDLSKSGTGLFPGAFYMNRHVKRVILPDYADTVPANLFKGCINLKEVTLPIDPNIGEAAFEGCISLTDIHIPLCIGSIATNAFRGCRENIRFYADSPAVNPKTLKQHIEKELGHSIELYNASGNLVESTEGHHHHHH | soluble
MEGEYRLTRSYAVVDITAQVDDSAILEPFACVMARARIGPRTRVGAHSVVGVGVSVGADCCIYHHVTLLNCDIGDRCVIHSGVAIGQDGFGFEVDQQTGKVRKKPQELSVRIGNEVEIGANTCIDRGSWRDTLIEDAVKIDNLVQIGHNVQVGANTFICGQAGVAGSTKIGRYCRFGGRSGAVDHLEIGDHVDVAANSVLTRNAPGHAVYAGFPAMPMREWRHQQVTLRRLSRAGKRQVDVSADDPEFPK | not soluble
MKAFISENVRGIYAFDENGNLIEKRYFTDKPEKVLDQLLKGEITKDLEELLNSLKEKGYDEFVFEHPELSRRAKELGFSATTEFPNIAGERLRSNPEEFLGENWFEEYYKVGVALTRMRIQEQSGARDKMVIQAIEALDDVDKVINLLVARLREWYSLHFPELDELLPKHPQYVAFVKTVGHRDNINEEVLRELGLSEEKIKKILEAKEKTMGAWMDQTDIEVVRQLAEEIDRLYQLRKKLEDYIDRAMDDVAPNLKALVGAKLAARLISLAGGLRELAMMPSSTIQVLGAEKALFRHLRTGAKPPKHGVIYQYPAINRSPWWQRGKIARALAGKLAIAARVDYFSGEYIAEELKKELEARIREIKEKYPKPPKRKREERKGKKPWKKDKKKKKKKEKPRRRAAALEHHHHHH | not soluble
MGAIEDVYADLDTDVSIEEFREAVESKVEQMGGLADEETAAMLIAHEIDDGEVNGVADIDSEMDEVKFIAKVTRVGDVRTFDREDADDDDAAAEGRVVNVTVADETDDVRVSLWDEQATAAADDLAPGDVLRIKGRPTDGYNGLEVSADEVELDADEQIDVQIQDEYDAADLSLGVSDVTLVGEVLDTEAVRTFDRDDGSEGRVSNLVVGDETGRVRVTLWDDQADTATDLDAGAVVEIVDGYVREREGSLELHVGDTGAVTPVPDADVSFVPDTTSIDSLEQDDTADIAGVVRSVDPTRTFDRDDGSEGQVRNVRLQDDTGDIRVALWGEKADLDIGPGDEVAALDVEIQDGWQDDIEASAGWQASVIPLSDSTQDDAAAGSDGPDRGLAAFGADSDDEPAATDDAADTQTPHSDTPVEFTGVVVQAQDPLILDDGEETMSVTTDADVTLGQEVTVRGSLDDGRLHADDVTESLEHHHHHH | not soluble
MYKAIIMPVDVFEMELSDKAVRHAEFLAQDDGVIHLLHVLPGSASLSLHRFAADVRRFEEHLQHEAEERLQTMVSHFTIDPSRIKQHVRFGSVRDEVNELAEELGADVVVIGSRNPSISTHLLGSNASSVIRHANLPVLVVR | not soluble
MGSDKIHHHHHHMKHYALLISFLALSACSQGSEDLNEWMAQTRREAKAEIIPFQAPTLPVAPVYSPPQLTGPNAFDFRRMETDKKGENAPDTKRIKETLEKFSLENMRYVGILKSGQKVSGFIEAEGYVYTVGVGNYLGQNYGRIESITDDSIVLNELIEDSTGNWVSRKAELLLNSSDKNTEQAAAPAAEQN | not soluble
GMTRSEAQGRLTGLAPVSVIDIGSNSVRLVVYEGLSRAPAVLFNEKVLCGLGKGLALTGRMHEEGVTRALMALRRFHVLSEQAQAQKLYVLATAAAREAENGPDFIREAEAILGCEIEVLSGEKEALYSAYGVISGFYQPDGIAGDLGGGSLELIDIKDKSCGEGITLPLGGLRLSEQSDGSLEKAATIARKHVKSFAKLLAAGEGRTFYAVGGTWRNIAKLHMEISGYPLHMMQGYELPLEEMLNFLEEVIVSRDSKDPAWQAVSKNRRSLLPFGAIAMREVLRAMKPAKIAFSAQGVREGYLYSLLTEAERESDPLLVAADELAILRARSPEHARELADWSGRTFPVFGIDETEEESRYRQAACLLADISWRAHPDYRGLQALNIIAHSSFVAITHPGRAYIALANYYRFEGLNDNGTTEPLAAMAGERLQELGKLLGGLLRVVYLFSASMPGVVDHLKFRKSDNPDIDLEFVVPHDYCDFAGERLDGRLQQLAKLTGKRLAFVFE | soluble
